Assay results: US20250066503A1, “CELL INJURY INDUCING THERAPEUTIC DRUG FOR USE IN CANCER THERAPY” (CHUGAI SEIYAKU KABUSHIKI KAISHA, priority 2016, published 2025)

These binders were tested against T1, soluble human CD3 epsilon chain (human, UniProt P07766 23-126) (assay: SPR).
T1 construct: also called CD3ε
T1 sequence (P07766 23-126 limits assumed): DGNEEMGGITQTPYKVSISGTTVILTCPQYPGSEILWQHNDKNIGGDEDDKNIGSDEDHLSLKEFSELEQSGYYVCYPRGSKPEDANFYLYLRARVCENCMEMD

| Kd [nM] | Binder |
| --- | --- |
| 3.22 | TR01H040-E22Hh/none-Hi-Kn010G3/L0211-k0 (antibody, V domains shown, one-arm) VH: QVQLVESGGGLVQPGRSLRLSCAASGFTFSNAWMHWVRQAPGKGLEWVAQIKDKSQNYATYYAESVKGRFTISRADSKNSIYLQMNSLKTEDTAVYYCRYVHYSASYGVDAWGQGTTVTVSS VL: DIVMTQSPLSLPVTPGEPASISCRSSQPPVHSNRNTYLHWYQQKPGQAPRLLIYKVSNRFSGVPDRFSGSGSGTDFTLKISRVEAEDVGVYYCYQGTQVPYTFGQGTKLEIKR |
| 42.3 | TR01H046-E22Hh/none-Hi-Kn010G3/L0000-k0 (antibody, V domains shown, one-arm) VH: QVQLVESGGGLVQPGRSLRLSCSASGFTFSNAWMHWVRQAPGKGLEWVAQIKDKSQNYATYYAESVKGRFTISRADSKNSIYLQMNSLKTEDTAVYYCRYVHYSASYGVDYWGQGTTVTVSS VL: DIVMTQSPLSLPVTPGEPASISCRSSQSLVHSNRNTYLHWYQQKPGQAPRLLIYKVSNRFSGVPDRFSGSGSGTDFTLKISRVEAEDVGVYYCGQGTQVPYTFGQGTKLEIKR |
| 46.5 | TR01H040-E22Hh/none-Hi-Kn010G3/L0222-k0 (antibody, V domains shown, one-arm) VH: QVQLVESGGGLVQPGRSLRLSCAASGFTFSNAWMHWVRQAPGKGLEWVAQIKDKSQNYATYYAESVKGRFTISRADSKNSIYLQMNSLKTEDTAVYYCRYVHYSASYGVDAWGQGTTVTVSS VL: DIVMTQSPLSLPVTPGEPASISCRSSQSPVHSNRNTYIQWYQQKPGQAPRLLIYKVSNRFSGVPDRFSGSGSGTDFTLKISRVEAEDVGVYYCYQGTQVPYTFGQGTKLEIKR |
| 67.9 | TR01H049-E22Hh/none-Hi-Kn010G3/L0000-k0 (antibody, V domains shown, one-arm) VH: QVQLVESGGGLVQPGRSLRLSCAASGFTFSNAWMHWVRQAPGKGLEWVAQIKDKSQNYATYYAESVKGRFTISRDDSKNSIYLQMNSLKTEDTAVYYCRYVHYSASYGVDAWGQGTTVTVSS VL: DIVMTQSPLSLPVTPGEPASISCRSSQSLVHSNRNTYLHWYQQKPGQAPRLLIYKVSNRFSGVPDRFSGSGSGTDFTLKISRVEAEDVGVYYCGQGTQVPYTFGQGTKLEIKR |
| 57.6 | TR01H050-E22Hh/none-Hi-Kn010G3/L0000-k0 (antibody, V domains shown, one-arm) VH: QVQLVESGGGLVQPGRSLRLSCAASGFTFSNAWMHWVRQAPGKGLEWVAQIKDKSQNYATYYAESVKGRFTISRDDSKNSIYLQMNSLKTEDTAVYYCRYVHYSASYGVDYWGQGTTVTVSS VL: DIVMTQSPLSLPVTPGEPASISCRSSQSLVHSNRNTYLHWYQQKPGQAPRLLIYKVSNRFSGVPDRFSGSGSGTDFTLKISRVEAEDVGVYYCGQGTQVPYTFGQGTKLEIKR |
| 35.2 | TR01H044-E22Hh/none-Hi-Kn010G3/L0000-k0 (antibody, V domains shown, one-arm) VH: QVQLVESGGGLVQPGRSLRLSCSASGFTFSNAWMHWVRQAPGKGLEWVAQIKDKSQNYATYYAESVKGRFTISRADSKNSIYLQMNSLKTEDTAVYYCRYVHYSASYGVDIWGQGTTVTVSS VL: DIVMTQSPLSLPVTPGEPASISCRSSQSLVHSNRNTYLHWYQQKPGQAPRLLIYKVSNRFSGVPDRFSGSGSGTDFTLKISRVEAEDVGVYYCGQGTQVPYTFGQGTKLEIKR |
| 77.9 | TR01H054-E22Hh/none-Hi-Kn010G3/L0000-k0 (antibody, V domains shown, one-arm) VH: QVQLVESGGGLVQPGRSLRLSCAASGFTFSNAWMHWVRQAPGKGLEWVAQIKDKSQNYATYYAESVKGRFTISRADSKNSLYLQMNSLKTEDTAVYYCRYVHYSASYGVDYWGQGTTVTVSS VL: DIVMTQSPLSLPVTPGEPASISCRSSQSLVHSNRNTYLHWYQQKPGQAPRLLIYKVSNRFSGVPDRFSGSGSGTDFTLKISRVEAEDVGVYYCGQGTQVPYTFGQGTKLEIKR |
| 45.2 | TR01H048-E22Hh/none-Hi-Kn010G3/L0000-k0 (antibody, V domains shown, one-arm) VH: QVQLVESGGGLVQPGRSLRLSCAASGFTFSNAWMHWVRQAPGKGLEWVAQIKDKSQNYATYYAESVKGRFTISRDDSKNSIYLQMNSLKTEDTAVYYCRYVHYSASYGVDIWGQGTTVTVSS VL: DIVMTQSPLSLPVTPGEPASISCRSSQSLVHSNRNTYLHWYQQKPGQAPRLLIYKVSNRFSGVPDRFSGSGSGTDFTLKISRVEAEDVGVYYCGQGTQVPYTFGQGTKLEIKR |
| 2.17 | TR01H040-E22Hh/none-Hi-Kn010G3/L0212-k0 (antibody, V domains shown, one-arm) VH: QVQLVESGGGLVQPGRSLRLSCAASGFTFSNAWMHWVRQAPGKGLEWVAQIKDKSQNYATYYAESVKGRFTISRADSKNSIYLQMNSLKTEDTAVYYCRYVHYSASYGVDAWGQGTTVTVSS VL: DIVMTQSPLSLPVTPGEPASISCRPSQSPVHSNRNTYLHWYQQKPGQAPRLLIYKVSNRFSGVPDRFSGSGSGTDFTLKISRVEAEDVGVYYCYQGTQVPYTFGQGTKLEIKR |
| 31.6 | TR01H041-E22Hh/none-Hi-Kn010G3/L0000-k0 (antibody, V domains shown, one-arm) VH: QVQLVESGGGLVQPGRSLRLSCAASGFTFSNAWMHWVRQAPGKGLEWVAQIKDKSQNYATYYAESVKGRFTISRADSKNSIYLQMNSLKTEDTAVYYCRYVHYSASYGVDYWGQGTTVTVSS VL: DIVMTQSPLSLPVTPGEPASISCRSSQSLVHSNRNTYLHWYQQKPGQAPRLLIYKVSNRFSGVPDRFSGSGSGTDFTLKISRVEAEDVGVYYCGQGTQVPYTFGQGTKLEIKR |
| 20.4 | TR01H047-E22Hh/none-Hi-Kn010G3/L0000-k0 (antibody, V domains shown, one-arm) VH: QVQLVESGGGLVQPGRSLRLSCAASGFTFSNAWMHWVRQAPGKGLEWVAQIKDKSNNYATYYAESVKGRFTISRDDSKNSIYLQMNSLKTEDTAVYYCRYVHYSASYGVDIWGQGTTVTVSS VL: DIVMTQSPLSLPVTPGEPASISCRSSQSLVHSNRNTYLHWYQQKPGQAPRLLIYKVSNRFSGVPDRFSGSGSGTDFTLKISRVEAEDVGVYYCGQGTQVPYTFGQGTKLEIKR |
| 115 | TR01H058-E22Hh/none-Hi-Kn010G3/L0000-k0 (antibody, V domains shown, one-arm) VH: QVQLVESGGGLVQPGRSLRLSCAASGFTFSNAWMHWVRQAPGKGLEWVAQIKDKSQNYATYYAESVKGRFTISRDDSKNSLYLQMNSLKTEDTAVYYCRYVHYSASYGVDYWGQGTTVTVSS VL: DIVMTQSPLSLPVTPGEPASISCRSSQSLVHSNRNTYLHWYQQKPGQAPRLLIYKVSNRFSGVPDRFSGSGSGTDFTLKISRVEAEDVGVYYCGQGTQVPYTFGQGTKLEIKR |
| 62.7 | TR01H052-E22Hh/none-Hi-Kn010G3/L0000-k0 (antibody, V domains shown, one-arm) VH: QVQLVESGGGLVQPGRSLRLSCAASGFTFSNAWMHWVRQAPGKGLEWVAQIKDKSQNYATYYAESVKGRFTISRADSKNSLYLQMNSLKTEDTAVYYCRYVHYSASYGVDIWGQGTTVTVSS VL: DIVMTQSPLSLPVTPGEPASISCRSSQSLVHSNRNTYLHWYQQKPGQAPRLLIYKVSNRFSGVPDRFSGSGSGTDFTLKISRVEAEDVGVYYCGQGTQVPYTFGQGTKLEIKR |
| 52.2 | TR01H045-E22Hh/none-Hi-Kn010G3/L0000-k0 (antibody, V domains shown, one-arm) VH: QVQLVESGGGLVQPGRSLRLSCSASGFTFSNAWMHWVRQAPGKGLEWVAQIKDKSQNYATYYAESVKGRFTISRADSKNSIYLQMNSLKTEDTAVYYCRYVHYSASYGVDAWGQGTTVTVSS VL: DIVMTQSPLSLPVTPGEPASISCRSSQSLVHSNRNTYLHWYQQKPGQAPRLLIYKVSNRFSGVPDRFSGSGSGTDFTLKISRVEAEDVGVYYCGQGTQVPYTFGQGTKLEIKR |
| 15.2 | TR01H043-E22Hh/none-Hi-Kn010G3/L0000-k0 (antibody, V domains shown, one-arm) VH: QVQLVESGGGLVQPGRSLRLSCSASGFTFSNAWMHWVRQAPGKGLEWVAQIKDKSNNYATYYAESVKGRFTISRADSKNSIYLQMNSLKTEDTAVYYCRYVHYSASYGVDIWGQGTTVTVSS VL: DIVMTQSPLSLPVTPGEPASISCRSSQSLVHSNRNTYLHWYQQKPGQAPRLLIYKVSNRFSGVPDRFSGSGSGTDFTLKISRVEAEDVGVYYCGQGTQVPYTFGQGTKLEIKR |
| 38.8 | TR01H055-E22Hh/none-Hi-Kn010G3/L0000-k0 (antibody, V domains shown, one-arm) VH: QVQLVESGGGLVQPGRSLRLSCAASGFTFSNAWMHWVRQAPGKGLEWVAQIKDKSNNYATYYAESVKGRFTISRDDSKNSLYLQMNSLKTEDTAVYYCRYVHYSASYGVDIWGQGTTVTVSS VL: DIVMTQSPLSLPVTPGEPASISCRSSQSLVHSNRNTYLHWYQQKPGQAPRLLIYKVSNRFSGVPDRFSGSGSGTDFTLKISRVEAEDVGVYYCGQGTQVPYTFGQGTKLEIKR |
| 112 | TR01H057-E22Hh/none-Hi-Kn010G3/L0000-k0 (antibody, V domains shown, one-arm) VH: QVQLVESGGGLVQPGRSLRLSCAASGFTFSNAWMHWVRQAPGKGLEWVAQIKDKSQNYATYYAESVKGRFTISRDDSKNSLYLQMNSLKTEDTAVYYCRYVHYSASYGVDAWGQGTTVTVSS VL: DIVMTQSPLSLPVTPGEPASISCRSSQSLVHSNRNTYLHWYQQKPGQAPRLLIYKVSNRFSGVPDRFSGSGSGTDFTLKISRVEAEDVGVYYCGQGTQVPYTFGQGTKLEIKR |
| 17.1 | TR01H061-E22Hh/none-Hi-Kn010G3/L0000-k0 (antibody, V domains shown, one-arm) VH: QVQLVESGGGLVQPGRSLRLSCAASGFTFSNAWMHWVRQAPGKGLEWVAQIKDKSQNYATYYAESVKGRFTISRADSKNSIYLQMNSLKTEDTAVYYCRYVHYAASYGVDIWGQGTTVTVSS VL: DIVMTQSPLSLPVTPGEPASISCRSSQSLVHSNRNTYLHWYQQKPGQAPRLLIYKVSNRFSGVPDRFSGSGSGTDFTLKISRVEAEDVGVYYCGQGTQVPYTFGQGTKLEIKR |
| 29.1 | TR01H051-E22Hh/none-Hi-Kn010G3/L0000-k0 (antibody, V domains shown, one-arm) VH: QVQLVESGGGLVQPGRSLRLSCAASGFTFSNAWMHWVRQAPGKGLEWVAQIKDKSNNYATYYAESVKGRFTISRADSKNSLYLQMNSLKTEDTAVYYCRYVHYSASYGVDIWGQGTTVTVSS VL: DIVMTQSPLSLPVTPGEPASISCRSSQSLVHSNRNTYLHWYQQKPGQAPRLLIYKVSNRFSGVPDRFSGSGSGTDFTLKISRVEAEDVGVYYCGQGTQVPYTFGQGTKLEIKR |
| 44.8 | TR01H042-E22Hh/none-Hi-Kn010G3/L0000-k0 (antibody, V domains shown, one-arm) VH: QVQLVESGGGVVQPGGSLRLSCAASGFTFSNAWMHWVRQAPGKGLEWVAQIKDKSQNYATYYAESVKGRFTISRADSKNSIYLQMNSLKTEDTAVYYCRYVHYSASYGVDAWGQGTTVTVSS VL: DIVMTQSPLSLPVTPGEPASISCRSSQSLVHSNRNTYLHWYQQKPGQAPRLLIYKVSNRFSGVPDRFSGSGSGTDFTLKISRVEAEDVGVYYCGQGTQVPYTFGQGTKLEIKR |
| 73.2 | TR01H056-E22Hh/none-Hi-Kn010G3/L0000-k0 (antibody, V domains shown, one-arm) VH: QVQLVESGGGLVQPGRSLRLSCAASGFTFSNAWMHWVRQAPGKGLEWVAQIKDKSQNYATYYAESVKGRFTISRDDSKNSLYLQMNSLKTEDTAVYYCRYVHYSASYGVDIWGQGTTVTVSS VL: DIVMTQSPLSLPVTPGEPASISCRSSQSLVHSNRNTYLHWYQQKPGQAPRLLIYKVSNRFSGVPDRFSGSGSGTDFTLKISRVEAEDVGVYYCGQGTQVPYTFGQGTKLEIKR |
| 82.3 | TR01H053-E22Hh/none-Hi-Kn010G3/L0000-k0 (antibody, V domains shown, one-arm) VH: QVQLVESGGGLVQPGRSLRLSCAASGFTFSNAWMHWVRQAPGKGLEWVAQIKDKSQNYATYYAESVKGRFTISRADSKNSLYLQMNSLKTEDTAVYYCRYVHYSASYGVDAWGQGTTVTVSS VL: DIVMTQSPLSLPVTPGEPASISCRSSQSLVHSNRNTYLHWYQQKPGQAPRLLIYKVSNRFSGVPDRFSGSGSGTDFTLKISRVEAEDVGVYYCGQGTQVPYTFGQGTKLEIKR |
